The values below come from publication PMC11182772, “A non-canonical role of the inner kinetochore in regulating sister-chromatid cohesion at centromeres” (The EMBO Journal, 2024).

Assay [1] deals with T1, GST-Scc1 (281–420)-SA2 (80–1060) sub-complex (UniProt O60216 281-420; Q8N3U4 80-1060).
T1 sequence (looked up) 1: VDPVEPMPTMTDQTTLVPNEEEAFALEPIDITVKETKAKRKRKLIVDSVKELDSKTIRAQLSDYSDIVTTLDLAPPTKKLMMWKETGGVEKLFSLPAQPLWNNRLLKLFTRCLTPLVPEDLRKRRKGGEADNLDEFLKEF
T1 sequence (looked up) 2: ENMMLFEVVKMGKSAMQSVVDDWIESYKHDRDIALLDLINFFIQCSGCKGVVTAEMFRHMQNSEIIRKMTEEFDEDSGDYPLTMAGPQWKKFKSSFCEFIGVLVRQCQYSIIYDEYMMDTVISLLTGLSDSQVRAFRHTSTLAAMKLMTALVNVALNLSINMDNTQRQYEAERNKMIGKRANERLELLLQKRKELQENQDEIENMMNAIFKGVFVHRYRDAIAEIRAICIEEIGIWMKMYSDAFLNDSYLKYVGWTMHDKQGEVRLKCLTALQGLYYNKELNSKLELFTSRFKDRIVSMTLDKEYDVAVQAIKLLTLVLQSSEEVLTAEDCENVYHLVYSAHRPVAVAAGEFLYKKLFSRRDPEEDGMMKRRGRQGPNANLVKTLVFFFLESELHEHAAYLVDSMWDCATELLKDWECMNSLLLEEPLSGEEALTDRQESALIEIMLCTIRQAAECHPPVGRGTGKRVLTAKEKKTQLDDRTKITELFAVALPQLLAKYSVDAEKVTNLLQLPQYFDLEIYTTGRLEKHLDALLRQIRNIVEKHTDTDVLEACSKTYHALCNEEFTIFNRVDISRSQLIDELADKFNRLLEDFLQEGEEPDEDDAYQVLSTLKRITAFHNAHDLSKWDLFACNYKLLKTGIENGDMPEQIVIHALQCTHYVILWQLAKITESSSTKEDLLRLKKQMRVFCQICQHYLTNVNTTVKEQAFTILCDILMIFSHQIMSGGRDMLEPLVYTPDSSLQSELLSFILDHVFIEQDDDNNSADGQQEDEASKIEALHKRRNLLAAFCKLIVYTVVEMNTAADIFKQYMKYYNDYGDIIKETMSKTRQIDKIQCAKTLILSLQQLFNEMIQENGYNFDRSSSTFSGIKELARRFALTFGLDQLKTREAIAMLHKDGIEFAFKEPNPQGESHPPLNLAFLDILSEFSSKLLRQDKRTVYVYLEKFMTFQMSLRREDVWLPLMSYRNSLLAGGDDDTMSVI
Kind of assay: pull-down; MBP fusion protein as bait, eluted GST-Scc1 (281–420)-SA2 (80–1060) as prey; binding 2 h, three washes of 5 min in P150 buffer; immunoblot for GST. As to conditions: both partners purified. For orientation: In western blotting, separated proteins are transferred to a membrane and probed.

The target of assay [2] is T1, GST-Scc1 (281–420)-SA2 (80–1060) …. Kind of assay: pull-down; GST-Scc1 (281–420)-SA2 (80–1060) as bait, purified recombinant MBP fusion proteins as prey; immunoblot for MBP. As to conditions: both partners purified.

B1: MBP-CENP-U (1–200) (domain or fragment, human, UniProt Q71F23 1-200, looked up)
chain: MAPRGRRRPRPHRSEGARRSKNTLERTHSMKDKAGQKCKPIDVFDFPDNSDVSSIGRLGENEKDEETYETFDPPLHSTAIYADEEEFSKHCGLSLSSTPPGKEAKRSSDTSGNEASEIESVKISAKKPGRKLRPISDDSESIEESDTRRKVKSAEKISTQRHEVIRTTASSELSEKPAESVTSKKTGPLSAQPSVEKENL
notes: human CENP-U, residues 1–200; vector pMal-C2E; also called MBP-fused CENP-U (1–200); source: E. coli BL21 (DE3), purified (amylose resin)
As to B1, the binding result in assay [1] is given as “binds”.

B2: MBP-Wapl (1–630) (domain or fragment, human, UniProt Q7Z5K2 1-630, looked up)
chain: MTSRFGKTYSRKGGNGSSKFDEVFSNKRTTLSTKWGETTFMAKLGQKRPNFKPDIQEIPKKPKVEEESTGDPFGFDSDDESLPVSSKNLAQVKCSSYSESSEAAQLEEVTSVLEANSKISHVVVEDTVVSDKCFPLEDTLLGKEKSTNRIVEDDASISSCNKLITSDKVENFHEEHEKNSHHIHKNADDSTKKPNAETTVASEIKETNDTWNSQFGKRPESPSEISPIKGSVRTGLFEWDNDFEDIRSEDCILSLDSDPLLEMKDDDFKNRLENLNEAIEEDIVQSVLRPTNCRTYCRANKTKSSQGASNFDKLMDGTSQALAKANSESSKDGLNQAKKGGVSCGTSFRGTVGRTRDYTVLHPSCLSVCNVTIQDTMERSMDEFTASTPADLGEAGRLRKKADIATSKTTTRFRPSNTKSKKDVKLEFFGFEDHETGGDEGGSGSSNYKIKYFGFDDLSESEDDEDDDCQVERKTSKKRTKTAPSPSLQPPPESNDNSQDSQSGTNNAENLDFTEDLPGVPESVKKPINKQGDKSKENTRKIFSGPKRSPTKAVYNARHWNHPDSEELPGPPVVKPQSVTVRLSSKEPNQKDDGVFKAPAPPSKVIKTVTIPTQPYQDIVTALKCRREDK
notes: human Wapl, residues 1–630, with all three FGF motifs; vector pMal-C2E; also called MBP-fused Wapl (1–630); source: E. coli BL21 (DE3), purified (amylose resin; on resin or eluted)
As for B2, the binding result in assay [2] is given as “binds”.

B3: MBP-Sgo1 (230–400) (domain or fragment, human, UniProt Q5FBB7 230-400, looked up)
chain: DPLVNMHIPENVQHNACQWSKDQVNLSPKLIQPGTFTKTKEDILESKSEQTKSKQRDTQERKREEKRKANRRKSKRMSKYKENKSENKKTVPQKKMHKSVSSNDAYNFNLEEGVHLTPFRQKVSNDSNREENNESEVSLCESSGSGDDSDDLYLPTCKYIQNPTSNSDRPV
notes: human Sgo1, residues 230–400; vector pMal-C2E; also called recombinant MBP-Sgo1 (230–400); source: E. coli BL21 (DE3), purified (amylose resin)
With B3, in assay [2], the binding result was “binds”.
